Measurements from IntAct's records for PubMed 21081649.

B1: NAD-dependent protein deacetylase sirtuin-2 (Homo sapiens), Q8IXJ6-2 (parent)
chain: MDFLRNLFSQTLSLGSQKERLLDELTLEGVARYMQSERCRRVICLVGAGISTSAGIPDFRSPSTGLYDNLEKYHLPYPEAIFEISYFKKHPEPFFALAKELYPGQFKPTICHYFMRLLKDKGLLLRCYTQNIDTLERIAGLEQEDLVEAHGTFYTSHCVSASCRHEYPLSWMKEKIFSEVTPKCEDCQSLVKPDIVFFGESLPARFFSCMQSDFLKVDLLLVMGTSLQVQPFASLISKAPLSTPRLLINKEKAGQSDPFLGMIMGLGGGMDFDSKKAYRDVAWLGECDQGCLALAELLGWKKELEDLVRREHASIDAQSGAGVPNPSTSASPKKSPPPAKDEARTTEREKPQ

Variants of: B1
Details: with h4_human H4C16, P62805

Q: MDFARNLFSQTASLGSQKERLLDELTLEGVARYMQSERCRRVICLVGAGISTSAGIPDFRSPSTGLYDNLEKYHLPYPEAIFEISYFKKHPEPFFALAKELYPGQFKPTICHYFMRLLKDKGLLLRCYTQNIDTLERIAGLEQEDLVEAYGTFYTSHCVSASCRHEYPLSWMKEKIFSEVTPKCEDCQSLVKPDIVFFGESLPARFFSCMQSDFLKVDLLLVMGTSLQVQPFASLISKAPLSTPRLLINKEKAGQSDPFLGMIMGLGGGMDFDSKKAYRDVAWLGECDQGCLALAELLGWKKELEDLVRREHASIDAQSGAGVPNPSTSASPKKSPPPAKDEARTTEREKPQ [L4A;L12A;H150Y] was tested. Which “effect of a mutation on the interaction” value did it give?
A: increasing interaction
